# Reference: paper PMC8304084, “A Concerted Action of UBA5 C-Terminal Unstructured Regions Is Important for Transfer of Activated UFM1 to UFC1” (International Journal of Molecular Sciences, 2021)
# Read-outs that look alike come from different tables or passages of the source.
# T1: UFC1 (Homo sapiens, UniProt Q9Y3C8)
# T1 construct: Full length UFC1, residues 1–167; modified ubiquitin tag (Ub19) with TEV site (N, cleaved yes); made in house; host or cells: E. coli T7 Express
# T1 sequence (Q9Y3C8 1-167): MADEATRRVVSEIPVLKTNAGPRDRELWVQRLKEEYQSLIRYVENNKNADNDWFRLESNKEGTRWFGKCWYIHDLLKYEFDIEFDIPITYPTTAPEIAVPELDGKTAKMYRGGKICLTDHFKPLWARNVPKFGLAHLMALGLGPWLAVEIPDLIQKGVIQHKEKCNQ
# Legend:
# UBA5 [1] = conditions: in vitro; cited from earlier work
# From the text: The UBA5 C-terminal part (Figure 1A) plays a complex regulatory role, consisting of a few conserved regions that mediate interaction of UBA5 with other key players in the ufmylation cascade. The first sequence is a conserved region (R1, residues 334–348), interacting with UFM1 [10, 29, 30, 31, 32] and also with LC3/GABARAP proteins. This region (called LIR/UFIM by its dual nature) is important for the initial binding of UFM1 to UBA5 [10, 29, 31, 32] and for the following UFM1 activation in a trans-fashion. Trans-activation means that UBA5 forms an active ho ...
# UBA5 [2] = conditions: cited from earlier work
# From the text: Another conserved region in UBA5 is located at it very C-terminus (R3, residues 393–404) and is predicted to have a helical conformation. […] UFC1, the only known E2 enzyme for UFM1, was characterized structurally a few years after discovery of the UFM1 cascade. […] In our structure we observed that the UFC1 K33 sidechain forms an intermolecular hydrogen bond with the UBA5 D389 sidechain (Figure 3F). In contrast, UFC1 Q31 is not in contact with any of the UBA5 R3 residue and could not affect the UBA5:UFC1 interaction.
# UFC1 = biological target: T1, UFC1; test: In vitro thioester formation (ufmylation) assay, UFC1~UFM1 conjugate; assay type: biochemical; conditions: 70 µM UFM1, 20 µM UFC1, 20 µM UBA5 construct, 1 mM ATP, 50 mM HEPES pH 7.5, 22 °C
# Method: First, we analyzed the effect of the UBA5 C-terminus on UFM1 transfer to UFC1 with an in vitro thioester formation assay (Figure 1B–E).
# Ufmylation reaction assays were adopted from work of Xie. Briefly, 70 µM UFM1, 20 µM UFC1 and 20 µM of different UBA5 constructs were mixed in reaction buffer (50 mM HEPES pH = 7.5, 100 mM NaCl, 5 mM MgCl2). After starting the reaction with addition of 1 mM ATP, the reaction mix was incubated at 22 °C for the desired time. To quench the reaction and prepare electrophoretic samples, 1 µL of the reaction mix was added to 99 µL 1x non-reducing SDS loading buffer and frozen in liquid nitrogen. Sample content was visualized by sodium dodecyl sulfate polyacrylamide gel electrophoresis (SDS-PAGE). The transfer to polyvinylidene difluoride (PVDF) membrane was performed via a Trans-Blot® Turbo™ Transfer System (Bio-Rad, München, Germany). After transfer the membrane was blocked with TBST (Tris-buffered saline with Tween20 buffer, 20 mM Tris, 150 mM NaCl and 0.1% TWEEN 20) containing 5% w/v nonfat dry milk for 1 h, followed by α-UFC1 antibody incubation over night at 4 °C (ab189251 abcam, 1:10,000 in TBST containing 5% w/v nonfat dry milk). After washing with TBST the membrane was incubated with secondary antibody (anti-rabbit-HRP) for 1 h at RT and again washed with TBST. […] For quantification of UFC1 ufmylation coloc2 software implemented in ImageJ was used.
molecule,measurement,setting,value
"GABARAP: GABARAP, residues 3–116 (protein, left off: modified ubiquitin tag (Ub19), N-terminal, cleaved) GAMFVYKEEHPFEKRRSEGEKIRKKYPDRVPVIVEKAPKARIGDLDKKKYLVPSDLTVGQFYFLIRKRIHLRAEDALFFFVNNVIPPTSATMGQLYQEHHEEDFFLYIAYSDESVYG",effect on UFM1 binding to UBA5,UBA5 [1],inhibit UFM1 binding to UBA5
"UFC1 K33A: UFC1 K33A mutation, literature (protein, UniProt Q9Y3C8 1-167, looked up, variant K33A) Ubiquitin-fold …: MADEATRRVVSEIPVLKTNAGPRDRELWVQRLAEEYQSLIRYVENNKNADNDWFRLESNKEGTRWFGKCWYIHDLLKYEFDIEFDIPITYPTTAPEIAVPELDGKTAKMYRGGKICLTDHFKPLWARNVPKFGLAHLMALGLGPWLAVEIPDLIQKGVIQHKEKCNQ",effect of UFC1 mutation on UBA5 binding and UFM1 transfer,UBA5 [2],significantly reduces both UBA5 binding and UFM1 transfer from UBA5 to UFC1
same,effect of UFC1 mutation on UBA5 binding and UFM1 transfer,UBA5 [2]; listed as K33A,impaired UBA5 binding and UFM1 transfer to UFC1
"AD^1–330: UBA5 adenylation domain, residues 1–330 (protein, UniProt Q9GZZ9 1-330, looked up, fragment, adenylation domain) MAESVERLQQRVQELERELAQERSLQVPRSGDGGGGRVRIEKMSSEVVDSNPYSRLMALKRMGIVSDYEKIRTFAVAIVGVGGVGSVTAEMLTRCGIGKLLLFDYDKVELANMNRLFFQPHQAGLSKVQAAEHTLRNINPDVLFEVHNYNITTVENFQHFMDRISNGGLEEGKPVDLVLSCVDNFEARMTINTACNELGQTWMESGVSENAVSGHIQLIIPGESACFACAPPLVVAANIDEKTLKREGVCAASLPTTMGVVAGILVQNVLKFLLNFGTVSFYLGYNAMQDFFPTMSMKPNPQCDDRNCRKQQEEYKKKVAALPKQEVIQE",UFC1~UFM1 conjugation,UFC1; 7 h,80%
same,UFC1 conjugated to UFM1 (UFC1~UFM1),"UFC1; within 30 min, Western blot, triplicates",less than 5%
